Reference: patent publication US20260069728A1, “MULTI-TARGETING COMPOUND AND USE THEREOF” (Chengdu Shetai Medical Technology Co., Ltd., priority 2023, published 2026)
Like-named read-outs stand apart in the source and are kept apart here.

How the values were obtained:
[1] = Isoelectric point (PI) measurement; type: physicochemical; settings: unlabeled compound
[2] = test system: SUM149PT human breast cancer cell line; test: Cell saturation binding assay, SUM149PT; settings: 68Ga-labeled compound
Protocol: (1) For the cell saturation binding assay, a total of 8 radiolabeled ligand concentrations were set at intervals within the anticipated range. For each concentration, there were 3 groups: the non-inhibition group, the first single inhibition group (FAP single inhibition group), and the second single inhibition group (CXCR4/GRPR/αvβ3 single inhibition group). For each concentration and each group, 3 replicate wells were established.
(2) Cells were plated into a 24-well plate according to the cell plating procedure described above.
(3) The original culture medium was removed from the 24-well plate. Then, 400 μL of 100 mg/mL skimmed milk solution was added to each well for blocking for one hour. After removing the skimmed milk solution, each of wells was washed three times by adding 400 μL of PBS solution. Subsequently, 146 μL of FBS-free medium was added to each well. Next, the non-inhibition group received 4 μL of cold PBS per well, while the first single inhibition group and the second single inhibition group received the following additions per well according to Table 4: 2 μL of non-radiolabeled first single inhibitor solution and 2 μL of cold PBS; 2 μL of non-radiolabeled second single inhibitor solution and 2 μL of cold PBS. The plate was then incubated at room temperature for one hour.
(4) The ligands were radiolabeled with 68Ga using the labeling method described previously. Different volumes of FBS-free medium were added to formulate the radioligand systems at corresponding concentrations. Then, 50 μL of the corresponding concentration of the radioligand system was added to each well.
(5) The supernatant was removed, and the wells were washed three times with 400 μL of PBS. 200 μL of IM NaOH solution was added to each well for cell lysis. […] Each well was washed once with 400 μL of PBS solution, and the washings were sequentially added to the corresponding radioimmunoassay tubes.
(6) Radioactivity in the cells was measured using a γ counter. The equilibrium dissociation constant (KD) was obtained by fitting the curve using nonlinear regression analysis in GraphPad Prism software. KD is the drug concentration that causes half of the maximum effect (50% receptor occupancy).

[3] = Stability of radioligands in PBS buffer (radio-HPLC); type: physicochemical
Protocol: The purpose of this experiment was to test the stability of the radioligands under buffer conditions simulating the physiological environment. This stability is a prerequisite for further animal experiments.
(§1) 1. ^68Ga-SDYD01: ^68Ga-SDYD01 was added to PBS buffer (pH=7.4) and incubated at 37° C. The mixture samples were taken for radio-HPLC analysis after 0.5 hours, 1 hour, and 2 hours of incubation. The stability of ^68Ga-SDYD01 in PBS buffer: the radiochemical purities of ^68Ga-SDYD01 after incubation in PBS for 0.5 hours, 1 hour, and 2 hours were 98%, 97%, and 97%, respectively (FIG. 4).
(§2) 2. ^177Lu-SDYD01: ^177Lu-SDYD01 was added to PBS buffer (pH=7.4) and incubated at 37° C. The mixture samples were taken for radio-HPLC analysis after 24 hours, 48 hours, and 120 hours of incubation. The stability of ^177Lu-SDYD01 in PBS buffer: the radiochemical purities of ^177Lu-SDYD01 after incubation in PBS for 24 hours, 48 hours, and 120 hours were 97%, 96%, and 94%, respectively (FIG. 5).
as §1, with “^68Ga-SDYD02: ^68Ga-SDYD02” for “^68Ga-SDYD01: ^68Ga-SDYD01”, “^68Ga-SDYD02” for “^68Ga-SDYD01”, “96%, 95%” for “98%, 97%,”, “93%,” for “97%,”, “10).” for “4).”
as §2, with “^177Lu-SDYD02: ^177Lu-SDYD02” for “^177Lu-SDYD01: ^177Lu-SDYD01”, “^177Lu-SDYD02” for “^177Lu-SDYD01”, “95%, 91%” for “97%, 96%,”, “87%,” for “94%,”, “11).” for “5).”
as §1, with “1. ^68Ga-SDYD05: ^68Ga-SDYD05” for “1. ^68Ga-SDYD01: ^68Ga-SDYD01”, “of ^68Ga-SDYD05” for “of ^68Ga-SDYD01”, “98%, 96%” for “98%, 97%,”, “and 95%,” for “and 97%,”, “(FIG. 16).” for “(FIG. 4).”
as §2, with “^177Lu-SDYD05: ^177Lu-SDYD05” for “^177Lu-SDYD01: ^177Lu-SDYD01”, “^177Lu-SDYD05” for “^177Lu-SDYD01”, “97%, 96% and” for “97%,”, “96%,” for “96%, and 94%,”, “17).” for “5).”
1. ^68Ga-SDYD06: ^68Ga-SDYD06 was added to PBS buffer (pH=7.4) and incubated at 37° C. The mixture samples were taken for radio-HPLC analysis after 0.5, 1, and 2 hours of incubation. The stability of ^68Ga-SDYD06 in PBS buffer: the radiochemical purities of ^68Ga-SDYD06 after incubation in PBS for 0.5 hours, 1 hour, and 2 hours were 96%, 94% and 93%, respectively (FIG. 22).
2. ^177Lu-SDYD06: ^177Lu-SDYD06 was added to PBS buffer (pH=7.4) and incubated at 37° C. The mixture samples were taken for radio-HPLC analysis after 24 hours, 48 hours, and 120 hours of incubation.
1. ^68Ga-SDYD03: ^68Ga-SDYD03 was added to PBS buffer (pH=7.4) and incubated at 37° C. The mixture samples were taken for radio-HPLC analysis after 0.5 hours, 1 hour, and 2 hours of incubation. The stability of ^68Ga-SDYD03 PBS in PBS buffer: the radiochemical purities of ^68Ga-SDYD03 after incubation in PBS for 0.5 hours, 1 hour, and 2 hours were 96%, 96% and 95%, respectively (FIG. 27).
as §2, with “^177Lu-SDYD03: ^177Lu-SDYD03” for “^177Lu-SDYD01: ^177Lu-SDYD01”, “^177Lu-SDYD03” for “^177Lu-SDYD01”, “are 99%, 96%” for “were 97%, 96%,”, “28). […]” for “5).”

[4] = test system: subcutaneous xenograft tumors (U87 MG cells); test: Small animal PET imaging and biodistribution study; type: in vivo, NSG mice; settings: mouse, in vivo
Protocol: (§3) Eleven NSG mice bearing subcutaneous xenograft tumors (U87 MG cells), with tumor sizes approximately 150 mm^3, were used. The mice were intravenously injected via the tail vein with approximately 7.4 MBq of ^68Ga-labeled SDYD01, SDYD02, SDYD03. SDYD04, SDYD05, SDYD06, SDYD07, SDYD08 or SDYD07-1 compounds, or with ^[…]-labeled FAPI-04 or FAP2286 compounds as tracers. Micro PET/CT imaging was performed at 30 min, 60 min, and 120 min post-injection. Static images were acquired in 3D mode for 20 minutes. Reconstruction was performed using the OSEM3D/MAP method to obtain attenuation-corrected PET/CT fusion images.
(§4) NSG mice bearing subcutaneous xenograft tumors (U87 MG cells) were divided into 3 groups, with 11 mice in each group. They were intravenously injected via the tail vein with ^68Ga-labeled SDYD01, SDYD02, SDYD03. SDYD04, SDYD05, SDYD06. SDYD07, SDYD08, or SDYD07-1 compounds, or with ^68Ga-labeled FAPI-04 or FAP2286 compounds as tracers. Tumor-bearing mice injected with ^68Ga-labeled compounds SDYD01, SDYD02, SDYD03, SDYD04, SDYD05, SDYD06, FAPI-04, as well as 68Ga-labeled compounds FAPI-04 and FAP2286, were euthanized at 30 min. 60 min, and 120 min, respectively, for each group. Tumor-bearing mice injected with ^68Ga-labeled compounds SDYD07, SDYD08, and SDYD07-1 were euthanized at 30 min, 60 min, and 90 min, respectively, for each group. Blood, tumors, and other major organs and tissues were collected, weighed, and measured for radioactivity. After radioactive decay correction, the standardized uptake value (SUV) and percentage injected dose per gram of tissue (% ID/g) were calculated. In these figures, (a) represents the PET/CT imaging results, (b) represents the biodistribution results, and (c) represents the relative ratios of radioactive uptake in tumor versus normal tissues.

[5] = Small animal PET imaging and biodistribution study; type: in vivo, NSG mice; settings: NSG, mouse, in vivo, iv, 7.4 MBq, total radioactivity, absolute uptake value in the tumor
Protocol: as §3, §4

For `CCCCCC(=O)N[C@@H]1CSCc2cc(CSCCNC(=O)[C@@H](CCCCNC(=O)CN3CCN(CC(=O)O)CCN(CC(=O)O)CCN(CC(=O)O)CC3)NC(=O)COCCOCCNC(=O)COCCOCCNC(=O)CCN3C(=O)CC(SCCNC(=O)CCC(=O)N[C@@H](CCCNC(=N)N)C(=O)N[C@@H](CCCNC(=N)N)C(=O)N[C@@H](Cc4ccc5ccccc5c4)C(=O)N[C@@H]4CSSC[C@@H](C(=O)N[C@@H](CCCNC(=N)N)C(N)=O)NC(=O)[C@H](CCCNC(N)=O)NC(=O)[C@H](CCCNC(=N)N)NC(=O)[C@H](Cc5ccc(O)cc5)NC(=O)[C@@H]5CCCN5C(=O)[C@H](CCCCN)NC(=O)[C@H](CCCCN)NC(=O)[C@H](CCCNC(N)=O)NC(=O)[C@H](Cc5ccc(O)cc5)NC4=O)C3=O)cc(c2)CSC[C@@H](C(=O)O)NC(=O)[C@H](Cc2ccccc2)NC(=O)[C@H](CCC(N)=O)NC(=O)C([C@@H](C)O)NC(=O)[C@@H]2CCCN2C(=O)[C@@H]2CCCN2C1=O` (stereo partly drawn) [SDYD02], the “Main peak's PI” value [1] was 11.183, the “KD values / binding affinity to the receptors (in words)” value [2] was “relatively low KD values” and the Kd ([2]; FAPI-04 solution, read-out: KD value, First single inhibition group (FAP single inhibition)) was 3.35 ± 0.92 nM. The Kd ([2]; T140 solution (CXCR4 inhibitor), read-out: KD value, Second single inhibition group (CXCR4/GRPR/αvβ3 single inhibition)) was 6.3 ± 0.78 nM and the Kd ([2]; read-out: KD value, Non-inhibition group) was 7.11 ± 1.17 nM.
With `CN1C(=O)[C@@H](Cc2ccc(O)cc2)NC(=O)CNC(=O)[C@H](Cc2ccc3ccccc3c2)NC(=O)[C@H](CCCNC(=N)N)NC(=O)[C@H]1CCCNC(=O)c1ccc(CNC(=O)[C@H](CCCCNC(=O)CN2CCN(CC(=O)O)CCN(CC(=O)O)CCN(CC(=O)O)CC2)NC(=O)CCC(=O)NCCOCCOCC(=O)NCCOCCOCC(=O)N2CCN(CCCOc3ccc4nccc(C(=O)NCC(=O)N5CC(F)(F)C[C@H]5C#N)c4c3)CC2)cc1` [^68Ga-SDYD05, metal not drawn] the “stability in PBS buffer (in words)” value [3] was “quite stable in PBS buffer”, the “radioactive uptake in the tumor sites (in words)” value [4] was “significant radioactive uptake in the tumor sites” and the tissue uptake at 0.5 h [5] was at least 10 %ID/g. It also gave a tissue uptake at 1 h [5] of at least 10 %ID/g.
